# In the supplement of paper PMC9732359:
# ± gives the uncertainty stated by the source.
# Experiment: protein stability index of a GFP-peptide fusion (yeast GPS) (PSI 1-4); higher = more stable; sorted into four equal gates, so the index is relative within each strain
# Procedure, shortened: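 The protein stability index of a peptide was calculated by multiplying its read frequency in each gate by that gate's number and adding the products. The peptides were tiled 17-residue stretches of yeast proteins, fused downstream of GFP on a Cherry-expressing plasmid and carried in yeast as a pooled library. Mid-log cultures in leucine-free medium were sorted into four equal gates by GFP/Cherry ratio, and each gate's plasmids were PCR-amplified and Illumina-sequenced.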
Sequence,protein stability index (doa10∆),protein stability index (pdr5∆),protein stability index (san1∆),protein stability index (ubr1∆)
EPKKPSFTFASSKTSQP [YOR098C/NUP1],2.93 ± 0.047,2.88 ± 0.037,2.9 ± 0.045,3.04 ± 0.031
LLPNSKNVENTKNLSIL [DSN1],2.59 ± 0.1,2.5 ± 0.11,2.43 ± 0.12,2.83 ± 0.054
YKRSIVRNYKPLINRLK [SWI1],2.4 ± 0.13,2.7 ± 0.1,1.65 ± 0.21,1.98 ± 0.15
KNMPVIYNNIVSNIEGI [RGR1],2.43 ± 0.055,2.69 ± 0.066,2.5 ± 0.05,2.56 ± 0.041
KYSDILLKKATKPEVAS [CDC53],2.32 ± 0.097,2.23 ± 0.12,2.47 ± 0.15,2.47 ± 0.17
LDPISLILIPGETMWVP [RPN13],2.28 ± 0.095,2.45 ± 0.049,2.95 ± 0.093,3.4 ± 0.12
SGTDGSTIGILLLTIQL [SRP72],3.09 ± 0.064,2.91 ± 0.064,3.35 ± 0.054,3.15 ± 0.057
KVSKNSTSFKNPRRLEI [YMR153W/NUP53],2.85 ± 0.059,2.87 ± 0.057,2.88 ± 0.057,2.71 ± 0.032
GGGYFSAAGMTAAIDSV [FAS1],3.11 ± 0.15,3.23 ± 0.11,3 ± 0.24,3.07 ± 0.15
NKNGNAVCSTATVVSTN [PGD1],2.77 ± 0.059,2.83 ± 0.061,2.3 ± 0.073,2.81 ± 0.053
DLGIKYDPSIGIFGMDF [RPL11A],2.85 ± 0.04,3.06 ± 0.041,2.96 ± 0.039,3 ± 0.037
MINGVYYNEISRDLDIS [POP6],2.09 ± 0.26,1.21 ± 0.14,–,1.76 ± 0.12
IVGPDLAVLALVIVKKG [RPS6A],1.26 ± 0.035,1.34 ± 0.048,1.19 ± 0.093,1.36 ± 0.043
IDKITDGLGNVVDFTSL [YMR129W/POM152],3.41 ± 0.11,3.53 ± 0.13,3.37 ± 0.061,3.45 ± 0.1
HELPRYGITHGLTNWAA [RPL5],2.44 ± 0.045,2.42 ± 0.035,2.47 ± 0.048,2.25 ± 0.035
MWSVARAGQRGYHSRTS [RPL3],2.86 ± 0.11,3.14 ± 0.091,3.16 ± 0.069,3.11 ± 0.095
VKLTYNSPSSALRALQE [YDL088C/ASM4],2.42 ± 0.058,2.44 ± 0.066,2.62 ± 0.088,2.03 ± 0.038
IINKLIHIQSKENYPWE [POP3],2.65 ± 0.067,2.44 ± 0.047,1.81 ± 0.068,2.41 ± 0.045
PPQAGDRSLADDYDYVM [RPB8],3.23 ± 0.11,2.99 ± 0.11,3.33 ± 0.084,3 ± 0.09
ESSFIEIDDTEAEVTAE [BRR2],3.01 ± 0.068,3.1 ± 0.088,2.98 ± 0.11,3.06 ± 0.052
TSSKSSSLSAIIVFGYP [YDL088C/ASM4],2.31 ± 0.055,2.06 ± 0.048,2.71 ± 0.072,2.58 ± 0.05
MSEQQWREQLRNRDIAL [ROX3],2.98 ± 0.071,2.85 ± 0.056,3 ± 0.054,2.42 ± 0.048
FDERIKFANQLHDEYLV [RPN3],1.65 ± 0.092,2.02 ± 0.12,1.45 ± 0.14,1.36 ± 0.076
DPPIIIFINYKQTADWL [PRP28],1.43 ± 0.031,1.61 ± 0.048,1.9 ± 0.072,1.95 ± 0.042
EKLITSKLLVPQKNVKI [PRE10],2.55 ± 0.061,2.6 ± 0.047,2.04 ± 0.096,2.21 ± 0.042

Sequence,protein stability index (doa10∆),protein stability index (pdr5∆),protein stability index (san1∆),protein stability index (ubr1∆)
DGFDPRGNIKVMFATNR [RPT1],3.25 ± 0.17,3.48 ± 0.16,3.26 ± 0.091,3.24 ± 0.14
SLENNIREFPEYFAAQA [RPL10],2.3 ± 0.065,2.66 ± 0.068,2.75 ± 0.05,2.52 ± 0.062
FNYGKLPLPPSVEWMKV [SIN4],2.6 ± 0.11,2.93 ± 0.093,2.93 ± 0.065,2.92 ± 0.064
KNGTIVKKAVTVHSKSR [RPL19A],2.44 ± 0.068,2.8 ± 0.068,2.45 ± 0.079,1.96 ± 0.068
WLNFLRGTIPLLERYIG [PRP8],1.41 ± 0.068,1.23 ± 0.046,1.18 ± 0.077,1.1 ± 0.065
KGPAIDELSSKELVECH [NNF1],3.04 ± 0.055,3.13 ± 0.068,2.78 ± 0.077,2.82 ± 0.047
AAVETLYQDMAARHRAR [RPL20A],2.96 ± 0.065,3.23 ± 0.059,2.91 ± 0.051,2.91 ± 0.064
KPIQNGEIIDISAFTQF [ARP9],3.02 ± 0.098,2.76 ± 0.085,2.64 ± 0.091,2.98 ± 0.061
NSGIIPGNRNADNVDKI [FAS2],2.52 ± 0.083,2.52 ± 0.1,3.03 ± 0.091,3.04 ± 0.05
SLGFLQQSNKLHCCIQL [RPN3],2.39 ± 0.06,2.47 ± 0.085,1.86 ± 0.12,2.14 ± 0.058
AAPAAAAAEIADEPVKA [FAS2],2.55 ± 0.063,2.74 ± 0.067,2.56 ± 0.078,2.53 ± 0.045
DVVAKLEAKRKVSSAEY [RPL16A],1.69 ± 0.11,1.7 ± 0.071,–,–
SSNASFNNQGKLDLFKY [MED1],2.93 ± 0.039,3.03 ± 0.038,2.71 ± 0.032,3.04 ± 0.041
AKLESLLENSVDKNFDK [MTW1],3.39 ± 0.06,3.24 ± 0.076,3.34 ± 0.048,3.32 ± 0.066
RKSKLNLDNLQKVSQLE [POP4],2.89 ± 0.2,–,–,–
DVQARRQFVSNVRSVIR [RPP1],2.02 ± 0.15,2.5 ± 0.12,1.65 ± 0.23,2.44 ± 0.13
SPVTGDNSPSEDFMDIP [SNF2],3.21 ± 0.12,3.25 ± 0.1,2.81 ± 0.17,3.42 ± 0.058
SRPLKKVKILEQIDENW [SWI3],2.94 ± 0.077,3.11 ± 0.067,2.82 ± 0.072,2.99 ± 0.044
AMIDAGALEEITKDHKV [FAS2],–,2.99 ± 0.14,–,2.19 ± 0.2
KSLALLGYNFDGSAIED [SNF5],3.01 ± 0.084,2.99 ± 0.083,2.28 ± 0.072,2.86 ± 0.07
LNIRIQTYGETTAVDAL [RPC19],2.02 ± 0.12,1.09 ± 0.11,1.19 ± 0.28,1.15 ± 0.077
VLRLRGALVDRTQPWSI [RPS0A],2.65 ± 0.086,2.44 ± 0.072,2.52 ± 0.067,3.08 ± 0.031
STQPSFAWSKPSTGSNL [YGR119C/NUP57],2.98 ± 0.054,3.04 ± 0.055,3.01 ± 0.048,2.98 ± 0.038
GLIMLNLQPASVINNYL [NUT1],1.71 ± 0.063,1.5 ± 0.098,1.15 ± 0.27,2 ± 0.071
LLIEFPYLPKHYLVLLV [YJR042W/NUP85],1.98 ± 0.06,1.67 ± 0.053,2.07 ± 0.067,1.81 ± 0.047
